Experimental data taken from PMC8092224.

Target: RBD-ferritin fusion protein (SARS-CoV-2 spike RBD-… linker-H. pylori-bullfrog ferritin) (SARS-CoV-2 Wuhan-Hu-1 strain | bullfrog (Rana catesbeiana) | Helicobacter pylori)
Test: SEC; concentrated supernatant (500-kDa MWCO TFF) on HiPrep 16/60 Sephacryl S-500 HR, degassed PBS, 0.4 ml/min; size from LMW/HMW calibration standards; self-assembly of the monomer into the nanoparticle

Which stoichiometry N does the source give for “RBD-ferritin fusion protein (SARS-CoV-2 spike RBD-… linker-H. pylori-bullfrog ferritin)” here?
Its stoichiometry N is 24.
